Measured values reported in article doi:10.1101/318345, “Three enzymes and one substrate; regulation of flux through the glyoxylate shunt in the opportunistic pathogen, Pseudomonas aeruginosa” (bioRxiv, 2018).

Target: the molecule itself
Experiment: SEC-MALS; TSK-Gel G3000 SWXL column, 150 mM NaCl, 20 mM Tris-HCl (pH 8.0), 0.5 mL/min, Mini-DAWN light scattering detector

B1: Pseudomonas aeruginosa isocitrate lyase (ICL, PA2634) (enzyme, Pseudomonas aeruginosa strain PAO1, UniProt Q9I0K4 1-531, looked up)
chain: MSAYQNEIKAVAALKEKNGSSWSAINPEYAARMRIQNRFKTGLDIAKYTAAIMRKDMAEYDADSSVYTQSLGCWHGFIGQQKLISIKKHLKTTNKRYLYLSGWMVAALRSDFGPLPDQSMHEKTAVSGLIEELYTFLRQADARELDLLFTGLDAARAAGDKAKEAELLAQIDNFETHVVPIIADIDAGFGNAEATYLLAKKMIEAGACCIQIENQVSDEKQCGHQDGKVTVPHIDFLAKINAVRYAFLELGVDDGVIVARTDSLGAGLTKQIAVTNEPGDLGDLYNSFLDCEEISESELGNGDVVIKREGKLLRPKRLASNLFQFRKGTGEDRCVLDCITSLQNGADLLWIETEKPHVGQIKAMVDRIREVIPNAKLVYNNSPSFNWTLNFRQQVFDAFVAEGKDVSAYDRNKLMSVEYDDTELAKVADEKIRTFQRDGSAHAGIFHHLITLPTYHTAALSTDNLAKGYFADEGMLAYVKGVQRQELRQGIACVKHQNMAGSDIGDNHKEYFAGEAALKASGKDNTMNQFH
notes: isocitrate lyase (ICL), ORF PA2634 of Pseudomonas aeruginosa strain PAO1, 531 amino acids; The ORF was cloned into a pMAL-c2X derivative with a hexa-histidine tag on the N-terminus of MBP; The His6-MBP tag was cut off with Factor Xa; Crystallised with Ca2+ and glyoxylate; also called P. aeruginosa ICL; source: E. coli DH5α, purified (amylose resin, Factor Xa cleavage, Ni-NTA flow through); not …
stoichiometry N: 4

B2: Pseudomonas aeruginosa isocitrate dehydrogenase ICD (PA2623) (enzyme, Pseudomonas aeruginosa strain PAO1, UniProt Q02NB5 1-418, looked up)
chain: MGYQKIQVPATGDKITVNADMSLSVPKNPIIPFIEGDGIGVDISPVMIKVVDAAVEKAYKGERKIAWMEVYAGEKATQVYDQDTWLPQETLDAVRDYVVSIKGPLTTPVGGGIRSLNVALRQQLDLYVCQRPVRWFEGVPSPVKKPGDVDMVIFRENSEDIYAGVEWKAGSPEAEKVIKFLTEEMGVKKIRFTENCGIGIKPVSQEGTKRLVRKALQYAVDNDRSSVTLVHKGNIMKFTEGAFKDWGYEVARDEFGAELLDGGPWMQFKNPKTGKNVVVKDVIADAMLQQILLRPAEYDVIATLNLNGDYLSDALAAEVGGIGIAPGANLSDSVAMFEATHGTAPKYAGQDKVNPGSLILSAEMMLRHMGWTEAADLIIKGTNGAIAAKTVTYDFERLMDGATLLSCSEFGDAMIAKM
notes: isocitrate dehydrogenase ICD, ORF PA2623 of Pseudomonas aeruginosa strain PAO1, calculated molecular mass 45 kDa; The ORF was cloned into a pMAL-c2X derivative with a hexa-histidine tag on the N-terminus of MBP; The His6-MBP tag was cut off with Factor Xa; also called P. aeruginosa ICD; source: E. coli DH5α, purified (amylose resin, Factor Xa cleavage, Ni-NTA flow through); not shown: His6, …
stoichiometry N: 2
